Measured values from article PMC8601601.

Columns and labels:
[1] = biological target: human ACE2 with a C-terminal FLAG tag, on transduced HeLa cells (human) (UniProt Q9BYF1); assay: flow cytometry on cells
[2] = biological target: mink ACE2 with a C-terminal FLAG tag, on transduced HeLa cells (mink (Neovison vison)); assay: flow cytometry on cells

Which results are given for “WT S1 domain of SARS-CoV-2 spike C-terminally fused with a His tag (domain or fragment)”?
percent of ACE2-expressing cells positive for S1-Fc [1]: 86.5%; percent of ACE2-expressing cells positive for S1-Fc [2]: 1.2%
